Test results taken from patent US20180086825A1 (published 2018).

Target: T1, Ang2 protein (R&D systems) (human, UniProt O15123 19-496, limits assumed)
T1 sequence: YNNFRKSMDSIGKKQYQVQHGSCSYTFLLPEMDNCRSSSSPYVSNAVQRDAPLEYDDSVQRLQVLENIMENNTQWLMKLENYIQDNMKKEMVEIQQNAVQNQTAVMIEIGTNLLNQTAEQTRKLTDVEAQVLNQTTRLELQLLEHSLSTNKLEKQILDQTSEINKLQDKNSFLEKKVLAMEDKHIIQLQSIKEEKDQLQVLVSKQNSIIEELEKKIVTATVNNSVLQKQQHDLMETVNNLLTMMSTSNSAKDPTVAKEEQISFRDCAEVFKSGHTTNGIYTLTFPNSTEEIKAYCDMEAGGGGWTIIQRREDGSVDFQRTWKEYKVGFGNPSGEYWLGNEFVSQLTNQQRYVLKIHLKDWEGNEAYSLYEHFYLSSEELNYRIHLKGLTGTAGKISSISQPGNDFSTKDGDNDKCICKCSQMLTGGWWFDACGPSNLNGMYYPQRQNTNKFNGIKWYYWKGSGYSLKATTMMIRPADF
Assay: cell-based or functional assay

B1: SAIT-ANG2-AB-m10D6 (antibody, V domains shown)
VH: DVQLQESGPGLVKPSQSLSLTCTVTGYSITSDYAWNWIRQFPGNKLEWMGYINYSGNTDYNPSLKSRSSITRDTSKNQFFLQLNSVTTGDTATYYCARGNFEGAMDYWGQGTSVTVSS
VL: SIVMTQTPKFLLVSAGDRVTITCKASQSVSNDVAWYQQKPGQSPKLLIYYASNRYPGVPDRFTGSGYGTDFTFTISTVQAEDLAVYFCQQDYSSPWTFGGGTKLEIK
Tie2 phosphorylation level (pTyr/Tie2 ratio, HUVEC, 60 nM antibody with Ang2): 180%
